Data taken from patent US20160075790A1 (Bristol-Myers Squibb, published 2016).
Read-outs that look alike come from different tables or passages of the source.

T1: human CD40L, membrane-bound on cells (human, UniProt P29965 1-261)
T1 sequence: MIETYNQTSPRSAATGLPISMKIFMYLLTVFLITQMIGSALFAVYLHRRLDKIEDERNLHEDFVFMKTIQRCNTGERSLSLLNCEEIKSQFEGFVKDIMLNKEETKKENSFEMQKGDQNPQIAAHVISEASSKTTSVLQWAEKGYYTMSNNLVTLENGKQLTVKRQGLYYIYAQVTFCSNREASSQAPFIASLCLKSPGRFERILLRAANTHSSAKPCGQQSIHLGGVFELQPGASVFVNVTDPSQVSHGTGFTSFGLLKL

T2: human isoleucine zipper-CD40L (IZ-hCD40L) (human, UniProt P29965 113-261)
T2 sequence: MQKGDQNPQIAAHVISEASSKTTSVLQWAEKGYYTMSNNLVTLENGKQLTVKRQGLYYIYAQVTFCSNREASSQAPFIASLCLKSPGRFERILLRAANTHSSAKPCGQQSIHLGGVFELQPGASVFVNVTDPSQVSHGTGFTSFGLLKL

T3: human CD40L monomer triple mutant (T211E, S222Y, H224K, [108-261]) (human, UniProt P29965 108-261)
T3 construct: also called monomeric human CD40L
T3 chain: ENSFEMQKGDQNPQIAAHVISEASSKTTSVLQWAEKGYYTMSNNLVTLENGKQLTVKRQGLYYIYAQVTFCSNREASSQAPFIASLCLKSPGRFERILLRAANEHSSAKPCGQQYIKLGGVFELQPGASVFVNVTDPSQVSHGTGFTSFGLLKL


Columns and labels:
[1] = target: human isoleucine zipper-CD40L (IZ-hCD40L) (human) (UniProt P29965); experiment: cell-based or functional assay
[2] = target: T1, human CD40L, membrane-bound on cells; experiment: cell-based or functional assay
[3] = target: T2, human isoleucine zipper-CD40L …; experiment: cell-based or functional assay
[4] = target: T1, human CD40L, membrane-bound on cells; experiment: cell-based or functional assay; remark: listed apart in the source
[5] = target: T3, human CD40L monomer triple mutant …; experiment: SPR; dAb-CT-long captured on anti-human IgG Fc surface, CD40L monomer as analyte

| hIZCD40L-driven Human B Cell Proliferation EC50 [1] [nM] | CHO-hCD40L-driven DC Activation IL-12 EC50 [2] [nM] | CHO-hCD40L-driven Human B Cell Proliferation EC50 [2] [nM] | hIZCD40L-driven Human B Cell Proliferation EC50 [3] [nM] | CHO-hCD40L-driven DC Activation IL-12 EC50 [4] [nM] | CHO-hCD40L-driven Human B Cell Proliferation EC50 [4] [nM] | T-B cell MLR EC50 [4] [nM] | T-B cell MLR IL-6 EC50 [4] [nM] | binding result [5] | CHO-hCD40L-driven DC Activation IL-6 EC50 [4] [nM] | CHO-hCD40L-driven DC Activation IL-23 EC50 [4] [nM] | CHO-hCD40L-driven DC Activation TNF EC50 [4] [nM] | Binder |
| --- | --- | --- | --- | --- | --- | --- | --- | --- | --- | --- | --- | --- |
| 1.8 | 0.66 | 1.7 | – | – | – | – | – | – | – | – | – | 2h719-202-N297Qshort Fc (Fc fusion, not shown: a dimerising Fc or GST) EVQLLESGGGLVQPGGSLRLSCAASGFTFKKYEMMWVRQAPGKGLEWVSSISSDGSFTYYADSVKGRFTISRDNSKNTLYLQMNSLRAEDTAVYYCAEPFTEFDYWGHGTLVTVSS |
| – | – | – | 3 | 1.6 | 2 | 0.149 | 0.13 | no binding | – | – | – | 2h572-635-CT Long Fc (Fc fusion, not shown: linker and CT Long Fc (CT-L2)) EVQLLESGGGLVQPGGSLRLSCAASGFTFNWELMGWARQAPGKGLEWVSGIEGPGDVTYYADSVKGRFTISRDNSKNTLYLQMNSLRAEDTAVYYCVKVGKDSKSDYRGQGTLVTVSS |
| – | – | – | 3 | 1.9 | 1 | 0.174 | 0.13 | no binding | 1.3 | 1.2 | 1.7 | 2h572-633-CT Long Fc (Fc fusion, not shown: linker and CT Long Fc (CT-L2)) EVQLLESGGGLVQPGGSLRLSCAASGFTFNWELMGWARQAPGKGLEWVSGIEGPGDVTYYADSVKGRFTISRDNSKNTLYLQMNSLRAEDTAVYYCVKVGKDAKSDYRGQGTLVTVSS |
| – | – | – | 2 | 1.4 | 2 | 0.283 | 0.25 | no binding | – | – | – | 2h572-614-CT Long Fc (Fc fusion, not shown: linker and CT Long Fc (CT-L2)) EVQLLESGGGLVQPGGSLRLSCAASGFTFNWQLMGWVRQAPGKGLEWVSGIEGPGDVTYYADSVKGRFTISRDNSKNTLYLQMNSLRAEDTAVYYCVKVGKDAKSDYRGQGTLVTVSS |
| – | – | – | 1 | 3 | 6 | 13.6 | 8.1 | no binding | – | – | – | 2h572-6-CT Long Fc (Fc fusion, not shown: linker and CT Long Fc (CT-L2)) EVQLLESGGGLVQPGGSLRLSCAASGFTFNWQLMGWVRQAPGKGLEWVSGIEGPGDVTYYADSVKGRFTISRDNSKNTLYLQMNSLRAEDTAVYYCVKVGKESNSDYRGQGTLVTVSS |
| – | – | – | 2 | 1.6 | 2 | 0.468 | 0.38 | no binding | – | – | – | 2h572-608-CT Long Fc (Fc fusion, not shown: linker and CT Long Fc (CT-L2)) EVQLLESGGGLVQPGGSLRLSCAASGFTFNWELMGWARQAPGKGLEWVSGIEGPGDVTYYADSVKGRFTISRDNSKNTLYLQMNSLRAEDTAVYYCVKVGKESNSDYRGQGTLVTVSS |
| – | – | – | 1.6 | 1.4 | 2 | 0.72 | 0.43 | no binding | 1.5 | 1.5 | 2 | 2h572-619-Ctlong Fc (Fc fusion, not shown: linker and CT Long Fc (CT-L2)) EVQLLESGGGLVQPGGSLRLSCAASGFTFNWQLMGWVRQAPGKGLEWVSGIEGPGDVTYYADSVKGRFTISRDNSKNTLYLQMNSLRAEDTAVYYCVKVGKDSRSDYRGQGTLVTVSS |
| – | – | – | 2 | 1.5 | 1 | 0.162 | 0.13 | no binding | – | – | – | 2h572-634-CT Long Fc (Fc fusion, not shown: linker and CT Long Fc (CT-L2)) EVQLLESGGGLVQPGGSLRLSCAASGFTFNWELMGWARQAPGKGLEWVSGIEGPGDVTYYADSVKGRFTISRDNSKNTLYLQMNSLRAEDTAVYYCVKVGKDSRSDYRGQGTLVTVSS |
